Experimental data reported in the supplement of paper PMC5998384.

Experiments:
[1] = tested on: HeLa Kyoto; experiment: melting temperature (median over replicates), in situ; higher = more thermally stable
[2] = tested on: HeLa Kyoto; experiment: solubility change mitosis vs G1/S (difference of NP-40 vs SDS log2 ratios) (log2 ratio difference); higher = more soluble in mitosis
[3] = tested on: HeLa Kyoto; experiment: thermal stability score vs G1/S (z-score of summed log2 fold changes over temperatures); higher = more thermally stable than in G1/S
[4] = tested on: HeLa Kyoto; experiment: solubility in G1/S (NP-40 vs SDS abundance) (log2 ratio); higher = more soluble; details: cell cycle stage: G1/S
[5] = cell cycle stage: early G1 (4.5 h after nocodazole release)
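Wherever melting temperature (median over replicates), in situ is given: HeLa Kyoto cells synchronized by double thymidine or nocodazole block, proteins quantified by TMT10plex mass spectrometry, three independent biological replicates.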
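Wherever solubility change mitosis vs G1/S (difference of NP-40 vs SDS log2 ratios) is given: synchronized HeLa Kyoto cells (double thymidine block for G1/S, nocodazole release for mitosis), protein amounts in NP-40 versus SDS lysates quantified by mass spectrometry, three biological replicates.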
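Wherever solubility in G1/S (NP-40 vs SDS abundance) is given: HeLa Kyoto cells arrested at G1/S by double thymidine block, proteins quantified by TMT10plex mass spectrometry in mild NP-40 versus SDS extracts, three biological replicates.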
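Wherever thermal stability score vs G1/S (z-score of summed log2 fold changes over temperatures) is given: synchronized HeLa Kyoto cells, proteins quantified by TMT10plex mass spectrometry, three biological replicates, mitosis taken 0.5 h after nocodazole release, G1/S directly after double thymidine block.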

| Sequence | melting temperature ([1]; cell cycle stage: G1/S) | melting temperature ([1]; cell cycle stage: mitosis) | solubility change mitosis (log2) [2] | thermal stability score [3, 5] | thermal stability score ([3]; cell cycle stage: mitosis) | solubility in G1/S (log2) [4] |
| --- | --- | --- | --- | --- | --- | --- |
| MASTNAESQLQRIIRDLQDAVTELSKEFQEAGEPITDDSTSLHKFSYKLEYLLQFDQKEKATLLGNKKDYWDYFCACLAKVKGANDGIRFVKSISELRTSLGKGRAFIRYSLVHQRLADTLQQCFMNTKVTSDWYYARSPFLQPKLSSDIVGQLYELTEVQFDLASRGFDLDAAWPTFARRTLTTGSSAYLWKPPSRSSSMSSLVSSYLQTQEMVSNFDLNSPLNNEALEGFDEMRLELDQLEVREKQLRERMQQLDRENQELRAAVSQQGEQLQTERERGRTAAEDNVRLTCLVAELQKQWEVTQATQNTVKELQTCLQGLELGAAEKEEDYHTALRRLESMLQPLAQELEATRDSLDKKNQHLASFPGWLAMAQQKADTASDTKGRQEPIPSDAAQEMQELGEKLQALERERTKVEEVNRQQSAQLEQLVKELQLKEDARASLERLVKEMAPLQEELSGKGQEADQLWRRLQELLAHTSSWEEELAELRREKKQQQEEKELLEQEVRSLTRQLQFLETQLAQVSQHVSDLEEQKKQLIQDKDHLSQQVGMLERLAGPPGPELPVAGEKNEALVPVNSSLQEAWGKPEEEQRGLQEAQLDDTKVQEGSQEEELRQANRELEKELQNVVGRNQLLEGKLQALQADYQALQQRESAIQGSLASLEAEQASIRHLGDQMEASLLAVRKAKEAMKAQMAEKEAILQSKEGECQQLREEVEQCQQLAEARHRELRALESQCQQQTQLIEVLTAEKGQQGVGPPTDNEARELAAQLALSQAQLEVHQGEVQRLQAQVVDLQAKMRAALDDQDKVQSQLSMAEAVLREHKTLVQQLKEQNEALNRAHVQELLQCSEREGALQEERADEAQQREEELRALQEELSQAKCSSEEAQLEHAELQEQLHRANTDTAELGIQVCALTVEKERVEEALACAVQELQDAKEAASREREGLERQVAGLQQEKESLQEKLKAAKAAAGSLPGLQAQLAQAEQRAQSLQEAAHQELNTLKFQLSAEIMDYQSRLKNAGEECKSLRGQLEEQGRQLQAAEEAVEKLKATQADMGEKLSCTSNHLAECQAAMLRKDKEGAALREDLERTQKELEKATTKIQEYYNKLCQEVTNRERNDQKMLADLDDLNRTKKYLEERLIELLRDKDALWQKSDALEFQQKLSAEERWLGDTEANHCLDCKREFSWMVRRHHCRICGRIFCYYCCNNYVLSKHGGKKERCCRACFQKLSEGPGSPDSSGSGTSQGEPSPALSPASPGPQATGGQGANTDYRPPDDAVFDIITDEELCQIQESGSSLPETPTETDSLDPNAAEQDTTSTSLTPEDTEDMPVGQDSEICLLKSGELMIKVPLTVDEIASFGEGSRELFVRSSTYSLIPITVAEAGLTISWVFSSDPKSISFSVVFQEAEDTPLDQCKVLIPTTRCNSHKENIQGQLKVRTPGIYMLIFDNTFSRFVSKKVFYHLTVDRPVIYDGSDFL [FYCO1] | 51.3 °C | 51 °C | -0.142 | -0.119 | 0.0455 | 0.0536 |
| MASYPSGSGKPKAKYPFKKRASLQASTAAPEARGGLGAPPLQSARSLPGPAPCLKHFPLDLRTSMDGKCKEIAEELFTRSLAESELRSAPYEFPEESPIEQLEERRQRLERQISQDVKLEPDILLRAKQDFLKTDSDSDLQLYKEQGEGQGDRSLRERDVLEREFQRVTISGEEKCGVPFTDLLDAAKSVVRALFIREKYMALSLQSFCPTTRRYLQQLAEKPLETRTYEQGPDTPVSADAPVHPPALEQHPYEHCEPSTMPGDLGLGLRMVRGVVHVYTRREPDEHCSEVELPYPDLQEFVADVNVLMALIINGPIKSFCYRRLQYLSSKFQMHVLLNEMKELAAQKKVPHRDFYNIRKVDTHIHASSCMNQKHLLRFIKRAMKRHLEEIVHVEQGREQTLREVFESMNLTAYDLSVDTLDVHADRNTFHRFDKFNAKYNPIGESVLREIFIKTDNRVSGKYFAHIIKEVMSDLEESKYQNAELRLSIYGRSRDEWDKLARWAVMHRVHSPNVRWLVQVPRLFDVYRTKGQLANFQEMLENIFLPLFEATVHPASHPELHLFLEHVDGFDSVDDESKPENHVFNLESPLPEAWVEEDNPPYAYYLYYTFANMAMLNHLRRQRGFHTFVLRPHCGEAGPIHHLVSAFMLAENISHGLLLRKAPVLQYLYYLAQIGIAMSPLSNNSLFLSYHRNPLPEYLSRGLMVSLSTDDPLQFHFTKEPLMEEYSIATQVWKLSSCDMCELARNSVLMSGFSHKVKSHWLGPNYTKEGPEGNDIRRTNVPDIRVGYRYETLCQELALITQAVQSEMLETIPEEAGITMSPGPQ [AMPD2] | 56.2 °C | 55 °C | -0.181 | -0.578 | -2.37 | 0.0591 |
| MATAATIPSVATATAAALGEVEDEGLLASLFRDRFPEAQWRERPDVGRYLRELSGSGLERLRREPERLAEERAQLLQQTRDLAFANYKTFIRGAECTERIHRLFGDVEASLGRLLDRLPSFQQSCRNFVKEAEEISSNRRMNSLTLNRHTEILEILEIPQLMDTCVRNSYYEEALELAAYVRRLERKYSSIPVIQGIVNEVRQSMQLMLSQLIQQLRTNIQLPACLRVIGYLRRMDVFTEAELRVKFLQARDAWLRSILTAIPNDDPYFHITKTIEASRVHLFDIITQYRAIFSDEDPLLPPAMGEHTVNESAIFHGWVLQKVSQFLQVLETDLYRGIGGHLDSLLGQCMYFGLSFSRVGADFRGQLAPVFQRVAISTFQKAIQETVEKFQEEMNSYMLISAPAILGTSNMPAAVPATQPGTLQPPMVLLDFPPLACFLNNILVAFNDLRLCCPVALAQDVTGALEDALAKVTKIILAFHRAEEAAFSSGEQELFVQFCTVFLEDLVPYLNRCLQVLFPPAQIAQTLGIPPTQLSKYGNLGHVNIGAIQEPLAFILPKRETLFTLDDQALGPELTAPAPEPPAEEPRLEPAGPACPEGGRAETQAEPPSVGP [COG8] | 50.6 °C | 48.4 °C | -0.112 | 0.73 | 1.67 | -0.00808 |
| MATAATSPALKRLDLRDPAALFETHGAEEIRGLERQVRAEIEHKKEELRQMVGERYRDLIEAADTIGQMRRCAVGLVDAVKATDQYCARLRQAGSAAPRPPRAQQPQQPSQEKFYSMAAQIKLLLEIPEKIWSSMEASQCLHATQLYLLCCHLHSLLQLDSSSSRYSPVLSRFPILIRQVAAASHFRSTILHESKMLLKCQGVSDQAVAEALCSIMLLEESSPRQALTDFLLARKATIQKLLNQPHHGAGIKAQICSLVELLATTLKQAHALFYTLPEGLLPDPALPCGLLFSTLETITGQHPAGKGTGVLQEEMKLCSWFKHLPASIVEFQPTLRTLAHPISQEYLKDTLQKWIHMCNEDIKNGITNLLMYVKSMKGLAGIRDAMWELLTNESTNHSWDVLCRRLLEKPLLFWEDMMQQLFLDRLQTLTKEGFDSISSSSKELLVSALQELESSTSNSPSNKHIHFEYNMSLFLWSESPNDLPSDAAWVSVANRGQFASSGLSMKAQAISPCVQNFCSALDSKLKVKLDDLLAYLPSDDSSLPKDVSPTQAKSSAFDRYADAGTVQEMLRTQSVACIKHIVDCIRAELQSIEEGVQGQQDALNSAKLHSVLFMARLCQSLGELCPHLKQCILGKSESSEKPAREFRALRKQGKVKTQEIIPTQAKWQEVKEVLLQQSVMGYQVWSSAVVKVLIHGFTQSLLLDDAGSVLATATSWDELEIQEEAESGSSVTSKIRLPAQPSWYVQSFLFSLCQEINRVGGHALPKVTLQEMLKSCMVQVVAAYEKLSEEKQIKKEGAFPVTQNRALQLLYDLRYLNIVLTAKGDEVKSGRSKPDSRIEKVTDHLEALIDPFDLDVFTPHLNSNLHRLVQRTSVLFGLVTGTENQLAPRSSTFNSQEPHNILPLASSQIRFGLLPLSMTSTRKAKSTRNIETKAQVVPPARSTAGDPTVPGSLFRQLVSEEDNTSAPSLFKLGWLSSMTK [COG1] | 49.8 °C | 49.4 °C | 0.0588 | -0.0852 | 0.918 | -0.122 |
| MATAEVLNIGKKLYEGKTKEVYELLDSPGKVLLQSKDQITAGNAARKNHLEGKAAISNKITSCIFQLLQEAGIKTAFTRKCGETAFIAPQCEMIPIEWVCRRIATGSFLKRNPGVKEGYKFYPPKVELFFKDDANNDPQWSEEQLIAAKFCFAGLLIGQTEVDIMSHATQAIFEILEKSWLPQNCTLVDMKIEFGVDVTTKEIVLADVIDNDSWRLWPSGDRSQQKDKQSYRDLKEVTPEGLQMVKKNFEWVAERVELLLKSESQCRVVVLMGSTSDLGHCEKIKKACGNFGIPCELRVTSAHKGPDETLRIKAEYEGDGIPTVFVAVAGRSNGLGPVMSGNTAYPVISCPPLTPDWGVQDVWSSLRLPSGLGCSTVLSPEGSAQFAAQIFGLSNHLVWSKLRASILNTWISLKQADKKIRECNL [PAICS] | 63.2 °C | 66.2 °C | -0.0303 | -0.183 | -0.625 | 0.271 |
